Laboratory results as given in article doi:10.1101/2025.03.06.641801, “DMBT1 promotes SARS-CoV-2 infection and its SRCR-derived peptide inhibits SARS-CoV-2 infection” (bioRxiv, 2025).

Target: the molecule itself
Experiment: reverse-phase HPLC with TOF mass detection; peptide 7 of an earlier (old) synthetic batch in PBS; Agilent HPLC Infinity II 1290 with TOF 6230, 5-65% acetonitrile/water with 0.1% TFA, 40 C

B1: peptide 7 (CQGRVEVLYRGSWGTV), SRCR-domain-derived peptide of DMBT1 (peptide)
peptide: CQGRVEVLYRGSWGTV
notes: Free N-terminal cysteine; earlier synthetic batches formed disulfide-linked homodimers in PBS; also called Pep7
binding result: binds
